One protein from paper doi:10.1101/2020.06.09.143594 (bioRxiv, 2020) can be followed below.

The series deals with the molecule itself. The experiment in a line: cross-linking.

B1: σ1 M332C, S370P, Q371E, S403C of the HeadΔSA mutant virus, on purified virions (natural protein, UniProt P04506 1-470, looked up)
chain: MDASLITEIRKIVLQLSVSSNGSQSKEIEEIKKQVQVNVDDIRAANIKLDGLGRQIADISNSISTIESRLGEMDNRLVGISSQVTQLSNSVSQNTQSISSLGDRINAVEPRVDSLDTVTSNLTGRTSTLEADVGSLRTELAALTTRVTTEVTRLDGLINSGQNSIGELSTRLSNVETSMVTTAGRGLQKNGNTLNVIVGNGMWFNSSNQLQLDLSGQSKGVGFVGTGMVVKIDTNYFAYNSNGEITLVSQINELPSRVSTLESAKIDSVLPPLTVREASGVRTLSFGYDTSDFTIINSVLSLRSRLTLPTYRYPLELDTANNRVQVADRFGCRTGTWTGQLQYQHPQLSWRANVTLNLMKVDDWLVLSFPEMTTNSIMADGKFVINFVSGLSSGWQTGDTEPCSTIDPLSTTFAAVQFLNNGQRIDAFRIMGVSEWTDGELEIKNYGGTYTGHTQVYWAPWTIMYPCNVR
With B1, the binding result is “binds”.
